Substitutions are numbered along the chain they refer to. Numbers in names are those of the source.
T1: human IL2Rα Fc fusion protein (human, UniProt P01589 22-213, limits assumed)
T1 construct: also called CD25; not shown: Fc part
T1 sequence (looked up): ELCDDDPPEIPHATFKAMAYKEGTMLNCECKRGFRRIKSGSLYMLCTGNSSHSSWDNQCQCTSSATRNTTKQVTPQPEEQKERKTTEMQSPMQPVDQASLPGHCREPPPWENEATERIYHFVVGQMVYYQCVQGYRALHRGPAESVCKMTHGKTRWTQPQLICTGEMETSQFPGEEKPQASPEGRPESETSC

T2: human IL2Rβ Fc fusion protein (human, UniProt P14784 27-239)
T2 construct: also called ILR2β; CD122; not shown: Fc part
T2 sequence (looked up): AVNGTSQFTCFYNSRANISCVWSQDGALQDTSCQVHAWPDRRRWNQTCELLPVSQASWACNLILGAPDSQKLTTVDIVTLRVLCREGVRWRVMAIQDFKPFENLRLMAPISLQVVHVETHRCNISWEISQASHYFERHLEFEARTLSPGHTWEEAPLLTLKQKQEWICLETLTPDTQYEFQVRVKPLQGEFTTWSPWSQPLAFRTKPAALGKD

B1: EP576, mammalian cell-produced, with F35L, R38D and F42R (ligand)
chain: APASSSTKKTQLQLEHLLLDLQMILNGINNYKNPLLTDMLTRKFYMPKKATELKHLQCLEEELKPLEEVLNLAQSKNFHLLPRNKISKTKVMVHELKGSETTFMCEYADETATIVEFLNRWITFSQSIISTLT
notes: His-Flag tag not in the parts; also called 2021EP21-C10
B2: EP575, mammalian cell-produced (ligand)
chain: APASSSTKKTQLQLEHLLLDLQMILNGINNYKNPLLTDMLTRKFYMPKKATELKHLQCLEEELKPLEEVLNLAQSKNFHLRNKGILGDISNIVLALKGSETTFMCEYADETATIVEFLNRWITFSQSIISTLT
notes: also called 2021EP16-D09
B3: EP580, mammalian cell-produced, with F35L, R38D and F42R (ligand)
chain: APASSSTKKTQLQLEHLLLDLQMILNGINNYKNPLLTDMLTRKFYMPKKATELKHLQCLEEELKPLEEVLNLAQSKNFHLRIRDLLNKINELHRYIKGSETTFMCEYADETATIVEFLNRWITFSQSIISTLT
notes: His-Flag tag not in the parts; also called 2021EP16-H09
B4: EP568 (clone 2021EP16-H06), E. coli-produced (ligand)
chain: APASSSTKKTQLQLEHLLLDLQMILNGINNYKNPKLTRMLTFKFYMPKKATELKHLQCLEEELKPLEEVLNLAQSKNFHLLAKRTVSNMYVRVEELKGSETTFMCEYADETATIVEFLNRWITFSQSIISTLT
B5: EP671, EP575 back-mutation clone (ligand)
chain: B2 chain with N82P, I85L, L86I, S90N
notes: Mammalian-produced, His-tagged
B6: EP675, EP575 back-mutation clone (ligand)
chain: B2 chain with I85L, L86I, G87S, D88N
notes: as for B5
B7: EP665, EP575 back-mutation clone (ligand)
chain: B2 chain with K83R, I85L, L86I, G87S, S90N
notes: as for B5
B8: EP658, EP575 back-mutation clone (ligand)
chain: B2 chain with N82P, K83R, I85L, L86I, G87S
notes: as for B5
B9: EP662, EP575 back-mutation clone (ligand)
chain: B2 chain with N82P, I85L, L86I, G87S, S90N
notes: as for B5
B10: EP668, EP575 back-mutation clone (ligand)
chain: B2 chain with N82P, K83R, I85L, L86I
notes: as for B5
B11: EP661, EP575 back-mutation clone (ligand)
chain: B2 chain with N82P, I85L, L86I, G87S, D88N
notes: as for B5
B12: EP669, EP575 back-mutation clone (ligand)
chain: B2 chain with N82P, I85L, L86I, G87S
notes: as for B5
B13: EP567, mammalian cell-produced (ligand)
chain: APASSSTKKTQLQLEHLLLDLQMILNGINNYKNPLLTDMLTRKFYMPKKATELKHLQCLEEELKPLEEVLNLAQSKNFHLSLREPIGNIVTSVRELKGSETTFMCEYADETATIVEFLNRWITFSQSIISTLT
notes: also called 2021EP21-C04
B14: EP581, mammalian cell-produced (ligand)
chain: APASSSTKKTQLQLEHLLLDLQMILNGINNYKNPLLTDMLTRKFYMPKKATELKHLQCLEEELKPLEEVLNLAQSKNFHLRSREVVSRIDAIILELKGSETTFMCEYADETATIVEFLNRWITFSQSIISTLT
notes: also called 2021EP16-C10
B15: EP573, mammalian cell-produced, with F35L, R38D and F42R (ligand)
chain: APASSSTKKTQLQLEHLLLDLQMILNGINNYKNPLLTDMLTRKFYMPKKATELKHLQCLEEELKPLEEVLNLAQSKNFHLNRTDLVGDVNATIKALKGSETTFMCEYADETATIVEFLNRWITFSQSIISTLT
notes: His-Flag tag not in the parts; also called 2021EP16-E02

What follows are binders tested against T1, human IL2Rα Fc fusion protein (assay: ELISA: human IL2Rα Fc fusion coated at 2 µg/mL, purified His-tagged IL2 titrated from 1 µM in 5x steps, anti-His HRP, OD450).
Experimental: (§1) Mammalian cell-produced agonists were characterized for their binding activities to respective IL2Rβ and IL2Rα receptors by ELISA. Briefly, 384 well plate was immobilized with human IL2Rα and IL2Rβ Fc fusion proteins at a final concentration of 2 μg/mL in 1× PBS in total volume of 25 μL per well. The plate was incubated overnight at 4° C. and blocked with 80 μL of superblock per well for 1 hour. The purified clones were added to IL2Rα or IL-2Rβ wells in parallel in duplicates as a titration, with the highest concentration of 1 μM, followed by a 10 point 5× serial dilution of the clones. The binding activity was detected by adding 25 μL of anti-His HRP diluted at 1:5000 in 1× PBST. In between each step, the plate was washed three times with 1× PBST using a plate washer. The plate was then developed with 25 μL of TMB substrate for five minutes and stopped by adding 25 μL of 2N sulfuric acid. The plate was read at OD450 nm Biotek plate reader and the bar graph at 1 μM of IL2 was generated with Prism 8.1 software (FIG. 2).

Row | binding result | Binder
1 | no binding (tested: 1000 nM) | B1
2 | no binding (tested: 1000 nM) | B2

Each binder was assayed against T2, human IL2Rβ Fc fusion protein (assay: ELISA: human IL2Rβ Fc fusion coated at 2 µg/mL, purified His-tagged IL2 titrated from 1 µM in 5x steps, anti-His HRP, OD450).
Experimental: as §1

Row | binding result | Binder
3 | no binding (tested: 1000 nM) | B3
4 | no binding (tested: 1000 nM) | B1

These binders were tested against T2, human IL2Rβ Fc fusion protein (assay: SPR (Biacore T200), receptor captured on Protein A chip).
Experimental: The assay was run with Biacore T200 control software version 2.0. For each cycle, 1 μg/mL of human IL2Rβ or IL2Rα was captured for 60 seconds at flow rate of 10 μL/min on flow cell 2 in 1× HBSP buffer on Protein A sensor chip. 100 nM and 20 nM of HIS tag purified engineered IL2 mutant was injected onto both reference flow cell 1 and IL2Rβ or IL2Rα captured flow cell 2 for 150 seconds at flow rate of 30 μL/min followed by washing for 300 seconds. The flow cells were then regenerated with Glycine pH 2 for 60 seconds at a flow rate of 30 μL/mins. The kinetics data was analyzed with Biacore T200 evaluation software 3000. The specific binding response unit was derived from subtraction of binding to reference flow cell 1 from target flow cell 2.

Row | Binder | binding result
5 | B4 | no binding (tested: Rmax < 5RU; 100 nM and 20 nM)

Each binder was assayed against T2, human IL2Rβ Fc fusion protein (assay: ELISA on coated receptor-Fc, anti-His detection, single point 10 µM).
Experimental: (§2) Back-mutations were characterized for their binding activities to IL2Rβ and IL2Rα receptors by ELISA. Briefly, 384 well plate was immobilized with human IL2Rα and IL2Rβ Fc fusion proteins at a final concentration of 2 μg/mL in 1× PBS in total volume of 25 μL per well. The plate was incubated overnight at 4° C. and blocked with 80 μL of superblock per well for 1 hour. […] The IL2 mutant binding was detected by adding 25 μL of anti-His HRP diluted at 1:5000 in 1× PBST. In between each step, the plate was washed three times with 1× PBST using a plate washer. […] The plate was then developed with 25 μL of TMB substrate for five minutes and stopped by adding 25 μl of 2N sulfuric acid. The plate was read at OD450 nm Biotek plate reader (Table 6) and the data was analyzed with Prism 8.1 software to generate bar graph (FIG. 5).

Row | Average OD (450 nm) [OD450] | Binder
6 | 0.09 | B5
7 | 0.082 | B6
8 | 0.096 | B7
9 | 0.87 | B8
10 | 0.083 | B9
11 | 0.17 | B10
12 | 0.501 | B11
13 | 0.082 | B12
14 | 0.093 | B2

These binders were tested against T1, human IL2Rα Fc fusion protein in the same assay as above.
Experimental: as §2

Row | Average OD (450 nm) [OD450] | Binder
15 | 0.082 | B5
16 | 0.084 | B6
17 | 0.077 | B7
18 | 0.12 | B8
19 | 0.083 | B9
20 | 0.113 | B10
21 | 0.11 | B11
22 | 0.082 | B12
23 | 0.113 | B2

Each binder was assayed against T2, human IL2Rβ Fc fusion protein (assay: ELISA on coated receptor-Fc, anti-His detection; grade by OD450 (weak: 0.3-0.7)).
Experimental: as §1

Row | OD450 [od] | Binder
24 | 0.3 to 0.7 | B13
25 | 0.3 to 0.7 | B14
26 | 0.3 to 0.7 | B15
27 | 0.3 to 0.7 | B2

What follows are binders tested against T1, human IL2Rα Fc fusion protein in the same assay as above.
Experimental: as §1

Row | OD450 [od] | Binder
28 | 0.3 to 0.7 | B13
29 | 0.3 to 0.7 | B14

The binders below were run against T2, human IL2Rβ Fc fusion protein (assay: ELISA, single concentration, anti-flag detection, E. coli-produced clone).
Experimental: (§3) Supernatants containing engineered IL2 mutants were assessed with sandwich ELISA assay to screen for IL2Rα binding. Briefly, 96-well plate was immobilized with human Fc and human IL2Rα, respectively, at a final concentration of 2 μg/mL in 1× PBS in total volume of 50 μL per well. The plate was incubated overnight at 4° C. followed by blocking with 200 μL of superblock per well for 1 hour. 100 μl of supernatant was added to both Fc and IL2Rα immobilized wells and incubated for 1 hour with shaking. The engineered IL2 mutant binding was detected by adding 50 μL of anti-Flag HRP diluted at 1:5000 in 1× PBST. In between each step, the plate was washed three times with 1× PBST in a plate washer. The plate was then developed with 50 μL of TMB substrate for five minutes and stopped by adding 50 μL of 2N sulfuric acid. The plate was read at OD450 nm using a Biotek plate reader and the binding and selectivity was analyzed.
as §3, with “Single clones were next screened for IL2Rβ binding. IL2Rβ binding screening ELISA was developed for the identification of individual” for “Supernatants containing”, “mutant.” for “mutants were assessed with sandwich ELISA assay to screen for IL2Rα binding.”, “IL2Rβ,” for “IL2Rα,”, “IL2Rβ” for “IL2Rα”
(§4) To further triage, the engineered IL2 clones with unique sequences were produced in E. coli. In short, the glycerol stock of each engineered agonist clone was inoculated into TB medium for overnight growth. The next day, cells from the overnight culture were inoculated into TB medium and grown to a cell density of OD₆₀₀ between 0.6-0.8. IPTG was added to a final concentration of 1 mM to induce the expression during culture at 30° C. overnight. The supernatant was collected by centrifugation.

Row | OD450 nm [OD450] | Binder
30 | 0.105 | B4

What follows are binders tested against T1, human IL2Rα Fc fusion protein in the same assay as above.
Experimental: as §3
as §3, with “Single clones were next screened for IL2Rβ binding. IL2Rβ binding screening ELISA was developed for the identification of individual” for “Supernatants containing”, “mutant.” for “mutants were assessed with sandwich ELISA assay to screen for IL2Rα binding.”, “IL2Rβ,” for “IL2Rα,”, “IL2Rβ” for “IL2Rα”
as §4

Row | OD450 nm [OD450] | Binder
31 | 1.25 | B4

Each binder was assayed against T1, human IL2Rα Fc fusion protein (assay: ELISA on coated receptor-Fc, anti-His detection).
Experimental: as §1

Row | binding result | Binder
32 | no binding (tested: OD450 < 0.1; 1 µM) | B3
33 | no binding (tested: OD450 < 0.1; 1 µM) | B15
